The text below walks through data of article PMC9927474.

In the data set the test system is T1, GST-NolA (Bradyrhizobium guangxiense CCBAU53363), ORF:43be7f56.
T1 sequence: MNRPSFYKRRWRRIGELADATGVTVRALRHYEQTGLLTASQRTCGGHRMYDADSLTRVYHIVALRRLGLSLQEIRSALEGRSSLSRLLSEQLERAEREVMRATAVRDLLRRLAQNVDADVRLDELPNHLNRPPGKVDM
Description: EMSA. The settings on record: EMSA: 10 uL, 1x binding buffer (composition, salt and pH not stated), 1 mg/mL BSA, 1 mg/mL salmon sperm DNA, 25 C, 30 min; 6% native PAGE in TB buffer (44.5 mM …). (A gel shift assay detects complexes by their altered migration in electrophoresis.)

In the case of “TGTGAACCATAGGAGAGTGCTCATCATGTACGGTCGAATCAACAATTTTTCCGAGAACGAAACTTATTATCGGCAAGATGCGGAGCATTCGAATTGCGAAAGCCAAGACTTCGCGGACGCGTTCGCTAGAATGCAGTTGCAAGATTCGGCCGGCAG (double strand) [nopP promoter probe]”, the binding result is listed as “no binding”.
